This note sets out measurements from patent US20260209368A1 (PROMETHEUS BIOSCIENCES, published 2026).

What is called EC50 (read off the curve) is the concentration that produces a half-maximal response. A word on the % Inhibition: it is the percentage by which the read-out fell short of the control.

Assay [1] deals with T1, recombinant human TL1A protein (human, UniProt O95150 72-251).
T1 sequence (looked up): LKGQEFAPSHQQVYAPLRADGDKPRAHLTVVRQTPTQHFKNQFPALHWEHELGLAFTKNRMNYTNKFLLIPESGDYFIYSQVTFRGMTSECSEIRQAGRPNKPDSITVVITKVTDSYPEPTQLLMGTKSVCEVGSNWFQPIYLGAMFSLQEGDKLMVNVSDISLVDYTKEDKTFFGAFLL
The assay can be described thus: cell-based or functional assay.

The target in assay [2] is T2, recombinant cynomolgus monkey TL1A protein (cynomolgus monkey, UniProt G7PRK8 72-251).
T2 sequence: T1 sequence (looked up) with F39L, I78V
Briefly: cell-based or functional assay.

Assay [3] addresses T2, recombinant cynomolgus monkey TL1A …. Briefly: ELISA on recombinant TL1A protein, antibody titrated, A450 nm read. On the procedure:
ELISA for each protein was performed at least three times. The data from a representative experiment are shown and are mean±SD. Abbreviations: A=absorbance, Ab=antibody, Cyno=cynomolgus, nm-nanometer, nM-nanomolar. […] Samples were assayed in triplicate, on two separate occasions. Data presented are the mean TL1A concentrations of three animals per group+SD. Samples collected from animals administered isotype control antibody are shown in circles, samples collected from animals administered anti-TL1A are shown in the triangles and square.
On the technique in general: In an ELISA, binding on a coated surface is turned into a signal by an enzyme label.

In another assay the target is T3, TL1A in human blood (human, UniProt O95150 72-251, limits assumed).
T3 sequence (looked up): T1 sequence (looked up)
The assay can be described thus: cell-based or functional assay.

Where a chain is given by its changes, count along the chain named.

B1: anti-TL1A antibody A219 (antibody, V domains shown)
VH: QVQLVQSGAEVKKPGASVKVSCKASGFDIQDTYMHWVKQRPGQGLEWMGRIDPASGHTKYDPKFQVRVTITRDTSTSTVYLELSSLRSEDTAVYYCARSGGLPDVWGQGTTVTVSS
VL: EIVLTQSPGTLSLSPGERATLSCRASSSVSYMYWYQQKPGQAPRPLIYATSNLASGIPDRFSGSGSGTDFTLTISRLEPEDFAVYYCQQWEGNPRTFGGGTKLEIK
notes: Humanized monoclonal IgG1 with a kappa light chain, designed to abolish effector functions
Turning to B1, in assay [1], the “IC50 of inhibition of TL1A-induced caspase activation in TF-1 cells” value came to 0.27 nM. Besides, in assay [2], the “IC50 of inhibition of TL1A-induced caspase activation in TF-1 cells” value was 0.59 nM; the “IC50 of inhibition of the IFN-γ response in monkey whole blood stimulated with immune complex, IL-12 and IL-18” value is 1.54 nM. For the same molecule, in assay [3], the “EC50 (read off the curve)” value is approximately 0.4 nM.

B2: A147 (antibody, V domains shown)
VH: B1 VH with D52E, T58I, V66G, I70M, L81M, V105W
VL: B1 VL
Take B2: in the assay with TL1A in human blood, the “% Inhibition at 1 nM Ig; inhibition of interferon gamma release in human blood” value (“% Inhibition at 1 nM Ig; inhibition” below) amounted to 51.3% and the “% Inhibition at 10 nM Ig; inhibition of interferon gamma release in human blood” value (“% Inhibition at 10 nM Ig; inhibition” for short) stood at 72.4%.

B3: A217 (antibody, V domains shown)
VH: B1 VH with L81M
VL: B1 VL
For B3, in the assay with TL1A in human blood, the “% Inhibition at 1 nM Ig; inhibition” value came to 46% and the “% Inhibition at 10 nM Ig; inhibition” value stood at 72.2%.

B4: A220 (antibody, V domains shown)
VH: B1 VH with I70M, V79A
VL: B1 VL with L46W
Take B4: in the assay with TL1A in human blood, the “% Inhibition at 1 nM Ig; inhibition” value was 36.9% and the “% Inhibition at 10 nM Ig; inhibition” value was determined as 63.2%.

B5: A213 (antibody, V domains shown)
VH: B1 VH with K38R, R72T, L81M
VL: B1 VL
On to B5, for which, in the assay with TL1A in human blood, the “% Inhibition at 1 nM Ig; inhibition” value is 48.6% and the “% Inhibition at 10 nM Ig; inhibition” value came out at 69.8%.

B6: A219 (antibody, V domains shown)
VH: B1 VH
VL: B1 VL
B6: in the assay with TL1A in human blood, the “% Inhibition at 1 nM Ig; inhibition” value turned out to be 59.8% and the “% Inhibition at 10 nM Ig; inhibition” value is 75.2%.

B7: A212 (antibody, V domains shown)
VH: B1 VH with K38R, M48I, V68A, R72T, V79A
VL: B1 VL
B7: in the assay with TL1A in human blood, the “% Inhibition at 1 nM Ig; inhibition” value amounted to 46.8% and the “% Inhibition at 10 nM Ig; inhibition” value was found to be 71.2%.
